This note sets out measurements from article PMC6792133.

The target of experiment [1] is NbPI4KII-mGFP (Nicotiana benthamiana). Briefly: FRET or BRET; FRET in agroinfiltrated N. benthamiana leaf epidermal cells, 3 dpi; mGFP donor, DsRed acceptor; Olympus FluoView FV1000. Background: In BRET a luciferase serves as donor, and the signal depends on an acceptor being close.
Experiment [2] has the same target.
The target in experiment [3] is Capsicum annuum phosphatidylinositol 4-kinase type II (CaPI4KII), yeast two-hybrid fusion (Capsicum annuum).
Experiment [4] concerns the target NbPI4KII-mGFP (Nicotiana benthamiana). The source holds these as a separate data set.

Consider “ChiLCV Rep1-120-DsRed (domain or fragment)”, for which the FRET efficiency in experiment [1] is 72%.
With “ChiLCV Rep1-180-DsRed (domain or fragment)”, in experiment [2], the percentage of cells with NbPI4KII-mGFP exclusively inside the nucleus when co-expressed with Rep1-180-DsRed (N = 16) turned out to be 87%. The substance further came in with a percentage of cells with CaPI4KII-mGFP restricted to the nucleus when co-expressed with Rep1-180-DsRed in experiment [3] of 61%. The FRET efficiency in experiment [1] was determined as 43%.
Turning to “ChiLCV Rep181-361-DsRed (domain or fragment)”, in experiment [2], the percentage of cells in which NbPI4KII-mGFP was redirected into the nucleus when co-expressed with Rep181-361-DsRed (N = 17) amounted to 78%. In addition, the percentage of cells with CaPI4KII-mGFP restricted to the nucleus when co-expressed with Rep181-361-DsRed in experiment [3] is 41%. Further, the FRET efficiency in experiment [1] amounted to 76%.
ChiLCV Rep-DsRed (natural protein) gave a percentage of cells with NbPI4KII-mGFP only inside the nucleus when co-expressed with Rep-DsRed (N. benthamiana epidermis, N = 19) in experiment [4] of 63%. Besides, the FRET efficiency in experiment [1] was 47%.
